Measurements from the nanobody polyreactivity screen of Harvey et al. (2022).

Test: yeast display, Sf9 membrane polyspecificity reagent, FACS + sequencing; frameworks hold sequencing errors
In short: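 In a synthetic yeast display library (Saccharomyces cerevisiae BJ5465), nanobody expression was induced with galactose for 36–48 hours. FACS gates were set low and high (top ~1%) using anti-HA fluorescence for expression and streptavidin fluorescence for binding of the Sf9 membrane reagent. Each polyreactivity label is drawn from the gate of origin.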

Sequence | polyreactivity (PSR sort gate)
QVQLVESGGGLVQAGGSLRLSCAASGRIFDRNAMGWYRQAPGKERELVARISRTGGSTYYADSVKGRFTISRDNAKNTVYLQMNSLKPEDTAVYYCAASRGGGYDYWGQGTQVTVSS | high polyreactivity
QVQLVESGGGLVQAGGSLRLSCAASGRIFDRNAMGWYRQAPGTERELVAAISRRGGSTYYADSVKGRFTISRDNAMNTVYLQMNSLKPEDTAVYYCNTGYSTRLHDYWGQGTQVTVSS | high polyreactivity
QVQLVESGGGLVQAGGSLRLSCAASGRIFDRYAMGWYRQAPGKEMELVAAISSDANTYYADSVKGRFTISRDNAKNTVYLQMNSLKPEDTAVYYCAKVVKGDHPYDYWGQGTQVTVSS | high polyreactivity
QVQLVESGGGLVQAGGSLRLSCAASGRIFDRYAMGWYRQAPGKERELVAVITGGTGNTYYADSVKGRFTISRDNAKNTVYLQMNSLKPEDTAVYYCNARGGYYKFRYPLYYWGQGTQVTVSS | high polyreactivity
QVQLVESGGGLVQAGGSLRLSCAASGRIFDSNAMGWYRQAPGKERELVAAITYSGGGTFYADSVKGRITISRDNEKNTDYLQMNSLKPEDTAVYYCAARTSGKYRYYYWGQGTQVTVSS | high polyreactivity
QVQLVESGGGLVQAGGSLRLSCAASGRIFDSNDMGWYRQAPGKEREFVAAITSSGGSTYYADSVKGRFTISRDNAKNTVYLQMNSLKPEDTAVYYCAARVYPRPQSYDKRYYWGQGTQVTVSS | low polyreactivity
QVQLVESGGGLVQAGGSLRLSCAASGRIFDSYAMGWYRQAPGKERELVATISWDSATTYYADSVKGRFTISRDNAKNTVYLQMNSLKPEDTAVYYCNTRDLYGYPQVTGYDYWGQGTQVTVSS | low polyreactivity
QVQLVESGGGLVQAGGSLRLSCAASGRIFDTNVMGWYRQAPGTEREFVAAIRWNGGSTNYADSVKGRFTISRDNAKNTVYLQMNSLKPEDTAVYYCAADGSIGWRHIYEYWGQATQVTVSS | low polyreactivity
QVQLVESGGGLVQAGGSLRLSCAASGRIFDVNAMGWYRQAPGKERELVAAITYSDGSTYYADSVKGRFTISRDNAKNTVYLQMNSLKPEDTAVYYCAATQEPVTPQPYGYWGQGTQVTVSS | low polyreactivity
QVQLVESGGGLVQAGGSLRLSCAASGRIFDVYAMGWYRQAPGKERELVAAITGSGGSTYYADSVKGRFTISRDNAKNTVYLQMNSLKPEDTAVYYCNAVGIWFPIRLIVPYDYWGQGTQVTVSS | low polyreactivity
QVQLVESGGGLVQAGGSLRLSCAASGRIFDWYAMGWYRQAPGKERELVAAISTSGANTYYADSVKGRITISRDNAKNTVYLQMNSLKPEDSGVYYCATDPYQPYEGDYWGQGTQVTVSS | low polyreactivity
QVQLVESGGGLVQAGGSLRLSCAASGRIFDWYAMGWYRQAPGKERELVAAITTSADRTYYADSVKGRFTISRDNAKNTVYLQMNSMKPEDTAVYYCNADAFGGYDEYDYWGQGTQVTVSS | low polyreactivity
QVQLVESGGGLVQAGGSLRLSCAASGRIFDYNAMGWYRQAPAKERELVAAITWSGGSTHYADSVKGRFTISRDNAKNTVYLQMKSLKPEDTAVYYCAADIGGDYLVFYYRGGYDYWGQGNQVTVSS | low polyreactivity
QVQLVESGGGLVQAGGSLRLSCAASGRIFDYNAMGWYRQAPGKERELVAAINSGGSTYADSVKGRFTISRDNAKNTVYLQMNSLNPEDTAVYYCAKSLGQTDWEYDSWGQGTQVTVSS | low polyreactivity
QVQLVESGGGLVQAGGSLRLSCAASGRIFDYNDMGWYRQAPGTERELVAGISSGGSTYYADSVKGRFTISRDNAKNTVYLQMNSLKPEDTAVYYCAAGGRPYRGYGYWGQGTQVTVSS | high polyreactivity
QVQLVESGGGLVQAGGSLRLSCAASGRIFDYNTMGWYRQAPGKERELVAAITGGTGSTYYADSVKGRFTISRDNAKNTVYLQMNSLKPEDTAVYYCAAGFHKRVSPEILYDYWGQGTLVTVSS | low polyreactivity
QVQLVESGGGLVQAGGSLRLSCAASGRIFDYNVMGWYRQAPGKERELVADINGSGGGTNYADSVKGRFTISRDNAKNTVYLQINTLKPEDTAVYYCNADSYEYHVPYYDYRYDYCGQGTQVTVSS | low polyreactivity
QVQLVESGGGLVQAGGSLRLSCAASGRIFDYYAMAWYRQAPGKERELVSAISSNGVSTYYADSVKGRFTISRDNPKNTVYLQMNSLKPEDTAVYYCAADPTRHSSFPQYDSWGQGTQVTVSS | low polyreactivity
QVQLVESGGGLVQAGGSLRLSCAASGRIFDYYAMGSYRQAPGNERELVDAISSGDNTYYADSVKGRFTISRDNAKNTVYLQMNSLKPEDTAVYYCAADVSRFGYYGIGFYYWRQGTQVTVSS | low polyreactivity
QVQLVESGGGLVQAGGSLRLSCAASGRIFDYYAMGWYRQAPGKERELVAAISLIGASTYYADSVKGRFTISRDNAKNSVYLQMNSLKQEDPAVDYCAAQYAFEVPGYYREDYYWGQGTQVTVSS | low polyreactivity

Sequence | polyreactivity (PSR sort gate)
QVQLVESGGGLVQAGGSLRLSCAASGRIFDYYAMGWYRQAPGKERELVAGITSDGDITYYADSVKGRFTISRDNAKNTVYLQMNSLKPEDTAVYYCAADSPHPVRYDYWGQGTQVTVSS | low polyreactivity
QVQLVESGGGLVQAGGSLRLSCAASGRIFDYYAMGWYRQAPGKERELVARISIGGSTYADSVKGRFTISRDNAKNTVYLQMNSLKPEDSAVDYCADSTIRLVGYRTYWGPRYDYWGQGTQVTVSS | low polyreactivity
QVQLVESGGGLVQAGGSLRLSCAASGRIFDYYAMGWYRQAPGKERELVARITSGGTTNYADSVKGRFTISRDNAKNPVYLQMNSLKPEDTAVYYCAADVYGTVRRVGWYYVGEGYDYWGQGTQVTVSS | low polyreactivity
QVQLVESGGGLVQAGGSLRLSCAASGRIFEDNGMGWYRQAPGKEREFVATISWDGDRTYYADSVKGRFTISRDNAKNTVYFQMNSLKPEDTAVYYCNADLPLWPFRGYEYWGQGTQVTVSS | low polyreactivity
QVQLVESGGGLVQAGGSLRLSCAASGRIFEDYMVWYRHAPGKDRELVAAIRWSGGGTYYADSVKGRFTISRDNAKNTVYLQMTSLKPEDTAVYYCATPGTGSVEVYGYWGQGTQVTVSS | low polyreactivity
QVQLVESGGGLVQAGGSLRLSCAASGRIFEGYAMGWYRPAPGKQRELVAAISKSGGRTNYADSVKGRFTISRDNAKNTVYLQMNSLKPEDSAVYYCNAGIKYWGSDFFYWGQVTQVTVSS | high polyreactivity
QVQLVESGGGLVQAGGSLRLSCAASGRIFEHNAMGWSRQAPGKEMEFVAAISSSGGSTYYADSVKGRFTISRDNAKNTVYLQMNSLKPEDTAVYYCNAGSTYYERNYWGQGTQVTVSS | low polyreactivity
QVQLVESGGGLVQAGGSLRLSCAASGRIFEINAMGWYRQAPGKERELVAAITRSGGSTYYADSVKGRFTISRDNAKNTVYLQMNSLKPEDTAVYYCAARGRYWYSRYYSWGQGTQVTVSS | high polyreactivity
QVQLVESGGGLVQAGGSLRLSCAASGRIFEPYTMGWYRQAPGKEREFVATITASGDSTYYADSVKGRFTISRDNAKNTVFLQMNSLKPEDTAVYYCAAAPFGGYEYDYWGQGTQVTVSS | high polyreactivity
QVQLVESGGGLVQAGGSLRLSCAASGRIFERNAMGWYRQAPGKERELVAAITYNGGRTYYAVSVKGRFTISRDNAKNTVYLQINSQKPEDTAVYYYNAQSRVTRSSYRGSPRYDYWGQGTQVTVSS | high polyreactivity
QVQLVESGGGLVQAGGSLRLSCAASGRIFERYAMGWYRQAPGKERELVAAISYRGGRTYYADSVKGRFTISRDNAKNTVYLQMNSLKPEDTAVYYCAAVEVRRVADYGFGLLDYWGQGSQVTVSS | high polyreactivity
QVQLVESGGGLVQAGGSLRLSCAASGRIFEVYVMGWYRQAPGKERELVAAITTSGGSTYYADSVKGRFTISRDNAKNTVYLQMNSLKPEDTAVYYCNRYWHLAGSWGQGTQVTVSS | low polyreactivity
QVQLVESGGGLVQAGGSLRLSCAASGRIFEYYAMGWYRQAPGKERELVAAINSSGGSTYYADSVKGRFTISRDNAKNTVYLQMNSLKPEDTAVYYCAARSYASPGWRYEYWGQGTQVTVSS | low polyreactivity
QVQLVESGGGLVQAGGSLRLSCAASGRIFFDYAMGWYRQAPGKERELVADIDWSGGITYYADSVKGRFTISRDNAKNTVYLQMNSLIPEDTAVYYCAADFDELYPTTAYGEFEYWGQGTQVTVSS | high polyreactivity
QVQLVESGGGLVQAGGSLRLSCAASGRIFFDYAMGWYRQAPGKERELVADISYNGGSTNYADSVKGRFTISRDNAKNTLYLQMNSLKPEDTADYYCNRAFVPVYDLDYYWGQGTQVTVSS | low polyreactivity
QVQLVESGGGLVQAGGSLRLSCAASGRIFFGYAMGWYRQAPGKERELVAAITRRGTITHYADSVKGRFTISRDNAKNTVYLQMNSLKPEDTAVYYCNTVYARYSTAPGYNYWGQGTQVTVSS | high polyreactivity
QVQLVESGGGLVQAGGSLRLSCAASGRIFFIYAMGWYRQAPGKERELVAGINRTGGSTYYADSVKGRFTISRDNAKNTVYLQMNSLKPEDTAVYYCAAVSYYASDYRYDYWGQGTQVTVSS | low polyreactivity
QVQLVESGGGLVQAGGSLRLSCAASGRIFFLYAMGWYRQAPGKERELVAAITWSADGTYYADSVKGRFTISRDNAKNTVYLQMNSLKPEDTAVYYCNADAYTTASSYNWWYYYWGQGTQVTVSS | low polyreactivity
QVQLVESGGGLVQAGGSLRLSCAASGRIFFNYAMGWYRQAPGKVRELVASITWRGGNTYYADSVKGRFTISRDNAKNTVYLQMNSLKPEDTAVYYCAASIRRAGRTYYYWGQGTQVTVSS | high polyreactivity
QVQLVESGGGLVQAGGSLRLSCAASGRIFFPYYTMGWYRQAPGKERELVAVISSSGSSTYYADSVKGRFTISRDNAKNTVYLQMNSLKPEDTAVYFCNAYGGVSTRLRGDYWGQGTQVTVSS | high polyreactivity
